Measurements from IntAct's records for PubMed 16469698.

B1: Transcription-repair-coupling factor (Escherichia coli (strain K12)), P30958 (parent)
chain: MPEQYRYTLPVKAGEQRLLGELTGAACATLVAEIAERHAGPVVLIAPDMQNALRLHDEISQFTDQMVMNLADWETLPYDSFSPHQDIISSRLSTLYQLPTMQRGVLIVPVNTLMQRVCPHSFLHGHALVMKKGQRLSRDALRTQLDSAGYRHVDQVMEHGEYATRGALLDLFPMGSELPYRLDFFDDEIDSLRVFDVDSQRTLEEVEAINLLPAHEFPTDKAAIELFRSQWRDTFEVKRDPEHIYQQVSKGTLPAGIEYWQPLFFSEPLPPLFSYFPANTLLVNTGDLETSAERFQADTLARFENRGVDPMRPLLPPQSLWLRVDELFSELKNWPRVQLKTEHLPTKAANANLGFQKLPDLAVQAQQKAPLDALRKFLETFDGPVVFSVESEGRREALGELLARIKIAPQRIMRLDEASDRGRYLMIGAAEHGFVDTVRNLALICESDLLGERVARRRQDSRRTINPDTLIRNLAELHIGQPVVHLEHGVGRYAGMTTLEAGGITGEYLMLTYANDAKLYVPVSSLHLISRYAGGAEENAPLHKLGGDAWSRARQKAAEKVRDVAAELLDIYAQRAAKEGFAFKHDREQYQLFCDSFPFETTPDQAQAINAVLSDMCQPLAMDRLVCGDVGFGKTEVAMRAAFLAVDNHKQVAVLVPTTLLAQQHYDNFRDRFANWPVRIEMISRFRSAKEQTQILAEVAEGKIDILIGTHKLLQSDVKFKDLGLLIVDEEHRFGVRHKERIKAMRANVDILTLTATPIPRTLNMAMSGMRDLSIIATPPARRLAVKTFVREYDSMVVREAILREILRGGQVYYLYNDVENIQKAAERLAELVPEARIAIGHGQMRERELERVMNDFHHQRFNVLVCTTIIETGIDIPTANTIIIERADHFGLAQLHQLRGRVGRSHHQAYAWLLTPHPKAMTTDAQKRLEAIASLEDLGAGFALATHDLEIRGAGELLGEEQSGSMETIGFSLYMELLENAVDALKAGREPSLEDLTSQQTEVELRMPSLLPDDFIPDVNTRLSFYKRIASAKTENELEEIKVELIDRFGLLPDPARTLLDIARLRQQAQKLGIRKLEGNEKGGVIEFAEKNHVNPAWLIGLLQKQPQHYRLDGPTRLKFIQDLSERKTRIEWVRQFMRELEENAIA

Variants of: B1
Conditions: with rpob_ecoli rpoB

Row | Variant | effect of a mutation on the interaction
1 | L499R | decreasing interaction
